Test results taken from PMC5565510 (Journal of molecular biology, 2017).
Numbering of substitutions follows the chain as printed. Each block holds one binder with its values, some of them ahead of it.

How the values were obtained:
[1] = target: the molecule itself; experiment: crystal structure
[2] = target: T1, Sulfolobus islandicus PilT N-terminal-domain-containing ATPase (SisPINA), untagged (Sulfolobus islandicus REY15A, UniProt F0NID4 1-505); experiment: pull-down
T1 sequence (looked up): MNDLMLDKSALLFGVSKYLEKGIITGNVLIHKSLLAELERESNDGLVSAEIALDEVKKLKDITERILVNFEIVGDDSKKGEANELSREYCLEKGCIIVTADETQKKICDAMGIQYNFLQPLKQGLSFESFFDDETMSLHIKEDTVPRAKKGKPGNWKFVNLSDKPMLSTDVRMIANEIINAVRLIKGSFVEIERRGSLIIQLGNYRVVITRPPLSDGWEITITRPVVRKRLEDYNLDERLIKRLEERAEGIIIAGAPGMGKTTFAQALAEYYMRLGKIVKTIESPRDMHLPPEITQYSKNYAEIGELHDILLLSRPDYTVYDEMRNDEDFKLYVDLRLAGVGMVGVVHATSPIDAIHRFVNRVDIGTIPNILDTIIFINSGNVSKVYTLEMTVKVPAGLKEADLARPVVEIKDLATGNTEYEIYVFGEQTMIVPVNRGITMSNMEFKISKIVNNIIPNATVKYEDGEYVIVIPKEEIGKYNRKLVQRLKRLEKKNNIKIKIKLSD

B1: SisPINAK261A, Walker A mutant of SisPINA (enzyme, Sulfolobus islandicus REY15A, UniProt F0NID4 1-505, looked up)
chain: T1 sequence (looked up) with K261A
stoichiometry N [1]: 6

binding result [2]: binds
B2: N-terminal His-tagged SisHjc (enzyme, Sulfolobus islandicus REY15A, UniProt F0NID3 1-143, looked up)
chain: MNAKKRKGSAVERNIVGKLRDKGFAVVRAPASGSKRKDPIPDIIALKSGVIILIEMKSRKDKEGKIYVRREQAEGIMEFARKSGGTLFLGVKKPGVLKFIPFDKLRRTETGNYVADSEIEGLDLEDLVRLVEAKVSKTLDNFL
